Measurements published in patent publication US20230357323A1 (University of Washington, published 2023).
One block for each binder: values may come before it. No end group written: not given here.

B13: human IL-23R (hIL-23R), custom construct with C-terminal avi and his tags, biotinylated (receptor, UniProt Q5VWK5 24-355, looked up, not shown: small tags and cut ends)
chain: GITNINCSGHIWVEPATIFKMGMNISIYCQAAIKNCQPRKLHFYKNGIKERFQITRINKTTARLWYKNFLEPHASMYCTAECPKHFQETLICGKDISSGYPPDIPDEVTCVIYEYSGNMTCTWNAGKLTYIDTKYVVHVKSLETEEEQQYLTSSYINISTDSLQGGKKYLVWVQAANALGMEESKQLQIHLDDIVIPSAAVISRAETINATVPKTIIYWDSQTTIEKVSCEMRYKATTNQTWNVKEFDTNFTYVQQSEFYLEPNIKYVFQVRCQETGKRYWQPWSSLFFHKTPETVPQVTSKAFQHDTWNSGLTVASISTGHLTSDNRGDIG
modifications: enzymatically biotinylated via the avi-tag
notes: immobilized on streptavidin tips in BLI, labeled target in FACS; also called human IL-23 receptor

How the values were obtained:
[1] = target: IL-23R on IL-23 reporter cells (Promega IL-23 Bioassay); experiment: cell-based or functional assay
Sequence of IL-23R on IL-23 reporter cells (Promega IL-23 Bioassay) (Q5VWK5 whole entry): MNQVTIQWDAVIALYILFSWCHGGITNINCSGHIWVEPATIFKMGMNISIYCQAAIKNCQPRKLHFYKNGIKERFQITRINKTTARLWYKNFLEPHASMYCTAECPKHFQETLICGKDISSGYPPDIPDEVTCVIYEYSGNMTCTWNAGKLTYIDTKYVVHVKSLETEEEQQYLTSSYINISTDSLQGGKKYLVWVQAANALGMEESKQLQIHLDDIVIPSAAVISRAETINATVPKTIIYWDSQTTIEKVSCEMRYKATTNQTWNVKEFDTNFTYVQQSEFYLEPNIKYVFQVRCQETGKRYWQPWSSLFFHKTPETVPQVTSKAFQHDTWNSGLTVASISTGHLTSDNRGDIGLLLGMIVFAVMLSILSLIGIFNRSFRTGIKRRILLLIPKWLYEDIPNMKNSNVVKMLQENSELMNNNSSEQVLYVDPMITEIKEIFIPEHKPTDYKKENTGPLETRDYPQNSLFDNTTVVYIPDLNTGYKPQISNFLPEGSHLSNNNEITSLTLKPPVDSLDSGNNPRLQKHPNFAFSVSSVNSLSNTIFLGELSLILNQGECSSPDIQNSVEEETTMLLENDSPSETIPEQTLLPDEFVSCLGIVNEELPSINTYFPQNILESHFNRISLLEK

[2] = target: B13; experiment: BLI titration, biotinylated hIL-23R on streptavidin tips
Description: (§1) Qualitative and quantitative assessment of binding affinity was performed using biolayer interferometry (ForteBio Octet™ […] and associated software for analysis). Enzymatically biotinylated target protein (30 nM) was immobilized on streptavidin-coated sensor tips, then sequentially dipped in wells with: buffer only (baseline), inhibitor in solution (association), and buffer only (dissociation). Kinetic constants were determined from the mathematical fit of a 1:1 binding model.

[3] = target: B13; experiment: biolayer interferometry titration, biotinylated hIL-23R immobilised on streptavidin tips, 1:1 fit
Description: (§2) Variants were first screened for relative binding to hIL-23R with biolayer interferometry (BLI). hIL-23R was immobilized on the BLI sensor tips and binding to each variant in solution at a constant concentration (50 nM) was measured to qualitatively determine relative performance of the variants. For the best-performing variants, binding constants (KD, including kₒₙ, and koff) were quantitatively determined with BLI titration experiments in triplicate.
as §1

[4] = target: B13; experiment: SPR
[5] = target: IL-23R on IL-23 reporter cells (Promega IL-23 Bioassay); experiment: cell-based or functional assay; remark: listed apart in the source
[6] = target: B13; experiment: yeast display FACS, SIF incubation then labeled hIL-23R, 5-7 rounds
Description: Yeast libraries were first incubated in SIF at 30C, then washed thoroughly and incubated with labeled hIL-23R, and cells retaining the highest binding signal (top 1-5%) were collected by FACS. Two rounds of selection were performed for each library, and the SIF incubation time and/or concentration of proteases were increased from first to second round. […] Indeed in several libraries we saw a large population of Myc-negative, binding-positive cells. In parallel, we performed two rounds of selection for binding to hIL-23R only, without pre-incubation in SIF. […] Best mutations were included in combinatorial libraries, sorted as above for 5-7 rounds after which individual clones were sequenced. Variants present in the final sorts were expressed in E. coli and characterized (SEQ ID NOS: 70-74 and 153-164).
Yeast strain EBY100 was transformed with each library and vector by electroporation and grow in minimal media selective for the yeast strain (-ura) and the transforming plasmid (-trp).²⁷ Expression was induced with 2% galactose. Surface expression was detected with anti-Myc-FITC (Immunology Consultants Laboratory) conjugate, and binding to biotinylated IL-23R was detected with streptavidin-PE (Invitrogen).
SIF SSM and combinatorial libraries were prepared as follows: after 16-24 hours induction, yeast were spun down, washed with PBSF, resuspended in SIF (recipe described below) at an OD of 2.0, and incubated at 30° C. shaking for 30-90 minutes as noted. After SIF digest, cells were spun down and washed 4 times with 800 uL PBSF, manually aspirating the supernatant each time to ensure complete washing to remove proteases. SIF-treated cells were then treated with target protein as described above.

[7] = target: B13; experiment: biolayer interferometry titration, biotinylated hIL-23R immobilised on streptavidin tips
Description: as §2, §1

[8] = target: B13; experiment: yeast display FACS
[9] = target: T1, human IL-23 cytokine (p19/p40 heterodimer) (human, UniProt Q9NPF7 20-189; P29460 23-328); experiment: method not stated here (FIG. 2E lists constants of the native ligand)
T1 construct: recombinant human IL-23 (R&D 1290-IL) is named for the cell assay; also called native ligand
T1 sequence (looked up) 1: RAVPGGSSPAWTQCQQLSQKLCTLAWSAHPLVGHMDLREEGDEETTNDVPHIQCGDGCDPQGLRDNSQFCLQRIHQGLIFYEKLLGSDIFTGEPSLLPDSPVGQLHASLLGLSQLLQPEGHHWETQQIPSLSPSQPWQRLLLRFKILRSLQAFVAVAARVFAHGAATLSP
T1 sequence (looked up) 2: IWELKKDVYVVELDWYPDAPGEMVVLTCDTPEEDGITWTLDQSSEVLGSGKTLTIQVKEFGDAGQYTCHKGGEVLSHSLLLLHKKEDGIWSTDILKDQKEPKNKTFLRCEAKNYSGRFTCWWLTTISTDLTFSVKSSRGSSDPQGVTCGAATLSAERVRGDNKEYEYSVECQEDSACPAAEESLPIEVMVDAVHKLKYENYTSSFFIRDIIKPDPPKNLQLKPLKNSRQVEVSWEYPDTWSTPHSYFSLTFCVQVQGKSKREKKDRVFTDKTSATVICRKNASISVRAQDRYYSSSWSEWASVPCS

[10] = target: T1, human IL-23 cytokine (p19/p40 …); experiment: table of binding constants on hIL-23R; biolayer interferometry per paragraph 183 and paragraph 210, method not stated separately for this row
Description: as §2, §1

B1: 23R_mini_17_C11 (designed binder)
chain: CKVKCGPVEFEATERWMCFYWYNKYC
modifications: not fully specified (bridges); cysteine pairing not given here
Fold better than competitor (IC50 against that of PTG compound C, IL-23 reporter cell assay) [table] [1]: 27 fold | IC50; inhibition of luciferase signal of IL-23 reporter cells stimulated with 8 ng/mL human IL-23 [table] [1]: 281 nM

B2: 23R_A (designed binder)
chain: MESEKYLRELVKKYYEGKLSVQEAVEEVRKYARKKGLEAWMLTWMFMELVKRYIHHHHHH
notes: purified from E. coli for BLI
Kd [2]: 26 nM | koff [3]: 0.014 s⁻¹ | kon [3]: 560000 M⁻¹ s⁻¹

B3: B04dslf02IB (designed binder)
chain: PLWQVFYLLNTCIKRTGDPTCKKLAKALRECLKKGDLKACNELADKAVKYINSHHHHHH
notes: purified form with C-terminal tag; also called B0402IB; BO4dslf02IB
Kd [4]: < 0.001 nM | IC50 (read off the curve); IL-23-stimulated luciferase signal in IL-23 reporter cells [lower graph] [5]: ~40 nM | Fold better than competitor (IC50 against that of PTG compound C, IL-23 reporter cell assay) [table] [1]: 484 fold | IC50; inhibition of luciferase signal of IL-23 reporter cells stimulated with 8 ng/mL human IL-23 [table] [1]: 16 nM

B4: B0402IC (designed binder)
chain: PLWQIFYLLNTCIKRTGDPTCKVLSKALRECLKKGDVKACSELASKAEKYINS
binding result [6]: binds

B6: B08 (designed binder)
chain: NLWQIFYVLNTIYKRTGDPTAKKLNKALREALKKHDEKATKELAKKATKYIRS
Kd [7]: 0.046 nM | Kd [3]: 0.046 nM | koff [3]: 4.6e-05 s⁻¹ | kon [3]: 990000 M⁻¹ s⁻¹

B7: 23R_mini_14_C4 (designed binder)
chain: CRVCKNGFCVDARECWMAYYLLNQYN
modifications: not fully specified (bridges); cysteine pairing not given here
Fold better than competitor (IC50 against that of PTG compound C, IL-23 reporter cell assay) [table] [1]: 16 fold | IC50; inhibition of luciferase signal of IL-23 reporter cells stimulated with 8 ng/mL human IL-23 [table] [1]: 487 nM

B9: 23R_B (designed binder)
chain: NLWQIFYQLSTILKRTGDPTAKKLLKALAEALKKGDEKALKELAKKATKYIRSHHHHHH
notes: purified from E. coli for BLI
Kd [2]: 70 nM | Kd [3]: 50 nM | koff [3]: 0.015 s⁻¹ | kon [3]: 500000 M⁻¹ s⁻¹

Binder: B13
Kd [9]: 1.7 nM | Kd [10]: 1.69 nM | koff [10]: 0.0013 s⁻¹ | kon [10]: 780000 M⁻¹ s⁻¹

B14: B0402SB (designed binder)
chain: QLWQIFYLLNTCIKRTGDPTCKKLIKALRECLKKGDAKACDELAKKAVKYIMS
binding result [6]: binds

Now from value to binder:

binding result [6]: binds
B5: B0402ID (designed binder)
chain: ELWQVFYLLNTCIKRTCDPTCKKLAKALRECLKKGDLKACKEDAYKALDYIRS

binding result [6]: binds
B8: B0402IE (designed binder)
chain: NLWYIFYLLNTCIKRTCDPTCKVLAKALRECLKKGDLKACSELADKAVDYIRS

Kd [4]: 0.075 nM
B10: rA11dslf02_M1P_R8Q_K35W (designed binder)
chain: PEPEKYLQELCKKYYEGKLSQQEAVEEIRKYARKWGLEAWKLVWYFMQCVKRDIHHHHHH

binding result [6]: binds
B11: B0402IA (designed binder)
chain: PLWQVFYLLNTCIKRTGDPTCKKLAKALRECLKPGDVKACKEVADKAMDYIRS

binding result [8]: binds
B12: 23R_mini_08 (designed binder)
chain: ASPELKETCERLERLGMERWLILWCKQRAEEG

binding result [6]: binds
B15: B0402SG (designed binder)
chain: ELWQIFYLLNTCIKRTGDPTCKKLIKALRECLKKGDPKACAELAKKAMKYIMS

binding result [6]: binds
B16: B0402SC (designed binder)
chain: QLWQIFYLLNTCIKRTCDPTCKKLKKALRECLKKGDAKACDELADKAVKYIMS

binding result [6]: binds
B17: B0402SF (designed binder)
chain: ELWQIFYLLNTCIKRTGDPTCKKLIKALRECLKKGDAKACSELADKAMKYIMS

binding result [6]: binds
B18: B0402SD (designed binder)
chain: PLWQIFYLLNTCIKRTGDPTCKKLIKALRECLKKGDPKACAELADKAMKYIMS

binding result [6]: binds
B19: B0402SE (designed binder)
chain: QLWQIFYLLNTCIKRTGDPTCKKLKKALRECLKKGDAKACKEAADKAVKYIMS

binding result [6]: binds
B20: B0402SA (designed binder)
chain: ELWQIFYLLNTCIKRTGDPTCKKLIKALRECLKKGDMKACDELAKKAVKYIMS
